From article PMC12813162

Biological target: phospholipase B D2
Test: IP-MS (UBQLN2 immunoprecipitation, mass spectrometry)
Details: iMNs; read off a plot

other: Student's T-test Difference: 0.47
Substance: Ubiquilin-2, wild type (from UniProt Q9UHD9) P497H; P506T; P509S; P525S
